According to doi:10.1101/2023.02.13.525685:

Legend:
[1] = target: RjoGlgAb (GT4 glycosyltransferase GlgAb from Rhodococcus jostii RHA1) (Rhodococcus jostii RHA1); test: SEC
[2] = target: RjoGlgAc (GT4 glycosyltransferase GlgAc from Rhodococcus jostii RHA1) (Rhodococcus jostii RHA1); test: SEC

stoichiometry N [2] | Substance | stoichiometry N [1] [subunits]
 | RjoGlgAb (GT4 glycosyltransferase GlgAb from Rhodococcus jostii RHA1) (enzyme) | > 15
2 | RjoGlgAc (GT4 glycosyltransferase GlgAc from Rhodococcus jostii RHA1) (enzyme) | 
